Experimental data reported in publication PMC11997057, “PIN1-SUMO2/3 motif suppresses excessive RNF168 chromatin accumulation and ubiquitin signaling to promote IR resistance” (Nature Communications, 2025).
Non-standard residues stand in square brackets, D forms with d. No end group written: not given here. pT = C[C@@H](OP(=O)(O)O)[C@H](N)C(=O)O

What was measured:
PIN1 = PIN1 (UniProt Q13526); experiment: native mass spectrometry, 1:5 protein:peptide; conditions: reference: unphosphorylated peptide; sites T208
PIN1 WW domain = PIN1 WW domain (UniProt Q13526); experiment: GST pull-down from cell lysate; conditions: reference: myc-RNF168 wild type; sites T208
[1] = target: T1, full-length PIN1 (recombinant, tag cleaved) (UniProt Q13526 1-163); experiment: native MS; PIN1 2.5 uM and peptide 12.5 uM (1:5 molar ratio) incubated on ice in 100 mM ammonium acetate pH 6.8; nanoelectrospray, positive mode; conditions: both partners purified
T1 construct: peptidyl-prolyl isomerase PIN1, full length; also called recombinant PIN1; tag-cleaved PIN1; source: E. coli Rosetta 2(DE3) pLysS, auto-induction, purified (IMAC), tag cleaved with TEV protease; not shown: His6, N-terminal, cleaved

binding result [1] | Molecule | also measured
 | RNF168 204-210 (from UniProt Q8IYW5) pT208 peptide | binding against the reference (PIN1): stronger
 | RNF168 (from UniProt Q8IYW5) T208A | binding against the reference (PIN1 WW domain): weaker
binds | SDPVTPK (end groups not known; also called non-phosphorylated peptide of the T208 motif; source: synthetic peptide, bought: GenScript Biotech) [unphosphorylated RNF168 peptide S204-K210] | 
binds | SDPV[pT]PK (end groups not known; also called phospho-RNF168 peptide; pT208-RNF168 peptide; source: synthetic peptide, bought: GenScript Biotech) [phosphorylated RNF168 peptide S204-K210, SDPV(pT)PK] | 
